Legend:
HLA-A*01:01 = test: IEDB peptide-MHC binding, purified MHC/direct/fluorescence; filed as Kd, often an IC50 or EC50 that approximates it; ≥ and ≤ were set here for values at or beyond the usual limits of such assays; conditions: source organism: Marburg virus - Musoke, Kenya, 1980
HLA-B*07:02 = test: as above
HLA-A*11:01 = test: as above
HLA-B*39:01 [1] = test: as above; conditions: source organism: Ravn virus - Ravn, Kenya, 1987
HLA-A*26:03 = test: as above; conditions: source organism: Ravn virus - Ravn, Kenya, 1987
HLA-B*18:01 [2] = test: as above; conditions: source organism: Marburg virus - Musoke, Kenya, 1980
HLA-A*68:02 = test: as above
HLA-A*02:01 [3] = test: as above; conditions: source organism: Marburg virus - Musoke, Kenya, 1980
HLA-B*15:01 [4] = test: as above; conditions: source organism: Marburg virus - Musoke, Kenya, 1980
HLA-B*15:09 = test: as above; conditions: source organism: Ravn virus - Ravn, Kenya, 1987
HLA-A*69:01 [5] = test: as above; conditions: source organism: Marburg virus - Musoke, Kenya, 1980
HLA-B*57:01 [6] = test: as above; conditions: source organism: Marburg virus - Musoke, Kenya, 1980
HLA-B*58:01 = test: as above; conditions: source organism: Ravn virus - Ravn, Kenya, 1987
HLA-A*24:03 = test: as above
HLA-A*02:06 = test: IEDB peptide-MHC binding, purified MHC/competitive/fluorescence; filed as Kd, often an IC50 or EC50 that approximates it; ≥ and ≤ were set here for values at or beyond the usual limits of such assays; conditions: source organism: Orthomarburgvirus marburgense
HLA-A*26:02 = test: as above; conditions: source organism: Orthomarburgvirus marburgense
HLA-A*31:01 = test: as above
HLA-B*15:17 = test: as above
HLA-A*02:03 = test: IEDB peptide-MHC binding, purified MHC/direct/fluorescence; filed as Kd, often an IC50 or EC50 that approximates it; ≥ and ≤ were set here for values at or beyond the usual limits of such assays
HLA-A*23:01 = test: as above
HLA-A*02:19 = test: as above
HLA-A*26:01 [7] = test: as above; conditions: source organism: Sudan ebolavirus - Uganda (2000)
HLA-A*02:16 = test: as above
HLA-A*02:12 = test: as above
HLA-A*02:11 = test: as above
HLA-A*03:01 = test: as above
HLA-B*27:03 = test: IEDB peptide-MHC binding, purified MHC/competitive/fluorescence; filed as Kd, often an IC50 or EC50 that approximates it; ≥ and ≤ were set here for values at or beyond the usual limits of such assays
HLA-B*39:01 [8] = test: as above
HLA-B*18:01 [9] = test: as above
HLA-A*02:01 [10] = test: as above
HLA-B*46:01 = test: as above
HLA-A*69:01 [11] = test: as above
HLA-B*57:01 [12] = test: as above
HLA-A*29:02 = test: IEDB peptide-MHC binding, purified MHC/direct/fluorescence; filed as Kd, often an IC50 or EC50 that approximates it; ≥ and ≤ were set here for values at or beyond the usual limits of such assays
HLA-A*26:01 [13] = test: IEDB peptide-MHC binding, purified MHC/competitive/fluorescence; filed as Kd, often an IC50 or EC50 that approximates it; ≥ and ≤ were set here for values at or beyond the usual limits of such assays
HLA-B*51:01 = test: as above
HLA-B*35:01 = test: as above; conditions: source organism: Zaire ebolavirus
HLA-B*15:01 [14] = test: as above
[15] = source organism: Marburg virus - Musoke, Kenya, 1980
[16] = source organism: Orthomarburgvirus marburgense
[17] = source organism: Zaire ebolavirus
[18] = source organism: Bacillus cereus NVH0597-99
[19] = source organism: Bacillus thuringiensis serovar israelensis ATCC 35646
[20] = source organism: Ravn virus - Ravn, Kenya, 1987
[21] = source organism: Vibrio vulnificus CMCP6
[22] = source organism: Vibrio vulnificus YJ016
[23] = source organism: Orthohantavirus tulaense

LFLSFCSLF
Kd (HLA-A*01:01): ≥ 20 µM | Kd (HLA-B*07:02; [15]): ≥ 20000 nM | Kd (HLA-A*11:01; [15]): ≥ 20 µM | Kd (HLA-B*39:01 [1]): ≥ 20 µM | Kd (HLA-A*26:03): ≥ 20 µM | Kd (HLA-B*18:01 [2]): ≥ 20 µM | Kd (HLA-A*68:02; [15]): ≥ 20 µM | Kd (HLA-A*02:01 [3]): ≥ 20 µM | Kd (HLA-B*15:01 [4]): ≥ 20 µM | Kd (HLA-B*15:09): ≥ 20 µM | Kd (HLA-A*69:01 [5]): ≥ 20 µM | Kd (HLA-B*57:01 [6]): ≥ 20 µM | Kd (HLA-B*58:01): 1380 nM | Kd (HLA-A*24:03; [15]): 0.245 µM | Kd (HLA-A*02:06): ≥ 20 µM | Kd (HLA-A*26:02): ≥ 20 µM | Kd (HLA-A*31:01; [16]): ≥ 20000 nM | Kd (HLA-B*15:17; [16]): ≥ 20 µM

ATAAATEAY
Kd (HLA-A*02:03; [17]): ≥ 20 µM | Kd (HLA-A*68:02; [17]): ≥ 20 µM | Kd (HLA-A*23:01; [17]): ≥ 20 µM | Kd (HLA-A*02:19; [17]): ≥ 20 µM | Kd (HLA-A*26:01 [7]): 216 nM | Kd (HLA-A*02:16; [17]): ≥ 20 µM | Kd (HLA-A*02:12; [17]): ≥ 20 µM | Kd (HLA-A*02:11; [17]): ≥ 20 µM | Kd (HLA-A*03:01; [17]): ≥ 20 µM | Kd (HLA-A*24:03; [17]): ≥ 20 µM | Kd (HLA-B*27:03; [17]): ≥ 20 µM | Kd (HLA-B*39:01 [8]; [17]): ≥ 20 µM | Kd (HLA-B*18:01 [9]; [17]): ≥ 20 µM | Kd (HLA-A*02:01 [10]; [17]): ≥ 20 µM | Kd (HLA-B*46:01; [17]): ≥ 20 µM | Kd (HLA-A*69:01 [11]; [17]): ≥ 20 µM | Kd (HLA-B*57:01 [12]; [17]): ≥ 20 µM

ITMYVAFEQ
Kd (HLA-A*02:03; [18]): ≥ 20 µM | Kd (HLA-A*11:01; [18]): ≥ 20 µM | Kd (HLA-A*68:02; [18]): ≥ 20 µM | Kd (HLA-A*23:01; [18]): ≥ 20 µM | Kd (HLA-A*02:19; [18]): ≥ 20 µM | Kd (HLA-A*02:16; [18]): ≥ 20 µM | Kd (HLA-A*02:12; [18]): ≥ 20 µM | Kd (HLA-A*29:02; [18]): ≥ 20 µM | Kd (HLA-A*02:11; [18]): ≥ 20 µM | Kd (HLA-A*03:01; [18]): ≥ 20 µM | Kd (HLA-A*24:03; [18]): ≥ 20 µM | Kd (HLA-B*27:03; [19]): ≥ 20 µM | Kd (HLA-B*39:01 [8]; [19]): ≥ 20 µM | Kd (HLA-B*18:01 [9]; [19]): ≥ 20 µM | Kd (HLA-A*02:01 [10]; [19]): ≥ 20 µM | Kd (HLA-B*46:01; [19]): ≥ 20 µM | Kd (HLA-A*26:01 [13]; [19]): ≥ 20 µM | Kd (HLA-B*15:17; [19]): ≥ 20 µM | Kd (HLA-A*69:01 [11]; [19]): ≥ 20 µM | Kd (HLA-B*57:01 [12]; [19]): ≥ 20 µM | Kd (HLA-B*51:01; [19]): ≥ 20 µM

FPSNMMVVT
Kd (HLA-A*02:03; [20]): ≥ 20 µM | Kd (HLA-B*07:02; [17]): 751 nM | Kd (HLA-A*68:02; [20]): ≥ 20 µM | Kd (HLA-A*23:01; [20]): ≥ 20 µM | Kd (HLA-A*02:19; [20]): ≥ 20 µM | Kd (HLA-A*02:16; [20]): ≥ 20 µM | Kd (HLA-A*02:12; [20]): ≥ 20 µM | Kd (HLA-A*29:02; [20]): ≥ 20 µM | Kd (HLA-A*02:11; [20]): ≥ 20 µM | Kd (HLA-A*03:01; [20]): ≥ 20 µM | Kd (HLA-A*24:03; [20]): ≥ 20 µM | Kd (HLA-B*27:03; [17]): ≥ 20 µM | Kd (HLA-B*39:01 [8]; [17]): ≥ 20 µM | Kd (HLA-B*18:01 [9]; [17]): ≥ 20 µM | Kd (HLA-B*35:01): 0.4 nM | Kd (HLA-A*02:01 [10]; [17]): ≥ 20 µM | Kd (HLA-B*46:01; [17]): ≥ 20 µM | Kd (HLA-B*15:01 [14]; [17]): ≥ 20 µM | Kd (HLA-A*26:01 [13]; [17]): ≥ 20 µM | Kd (HLA-B*15:17; [17]): ≥ 20 µM | Kd (HLA-A*69:01 [11]; [17]): ≥ 20 µM | Kd (HLA-B*57:01 [12]; [17]): ≥ 20 µM | Kd (HLA-B*51:01; [17]): ≥ 20 µM

GLSFLNPEK
Kd (HLA-A*02:03; [20]): ≥ 20 µM | Kd (HLA-A*68:02; [20]): ≥ 20 µM | Kd (HLA-A*23:01; [20]): ≥ 20 µM | Kd (HLA-A*02:19; [20]): ≥ 20 µM | Kd (HLA-A*02:12; [20]): ≥ 20 µM | Kd (HLA-A*03:01; source organism: Sudan ebolavirus - Maleo (1979)): 0.152 µM | Kd (HLA-A*24:03; [20]): ≥ 20 µM | Kd (HLA-B*27:03; [17]): ≥ 20 µM | Kd (HLA-B*39:01 [8]; [17]): ≥ 20 µM | Kd (HLA-B*18:01 [9]; [17]): ≥ 20 µM | Kd (HLA-B*46:01; [17]): ≥ 20 µM | Kd (HLA-B*15:01 [14]; [17]): ≥ 20 µM | Kd (HLA-A*26:01 [13]; [17]): ≥ 20 µM | Kd (HLA-B*15:17; [17]): ≥ 20 µM | Kd (HLA-A*69:01 [11]; [17]): ≥ 20 µM | Kd (HLA-B*57:01 [12]; [17]): ≥ 20 µM | Kd (HLA-B*51:01; [17]): ≥ 20 µM

SVMSTFFWE
Kd (HLA-A*02:03; [21]): ≥ 20 µM | Kd (HLA-A*11:01; [21]): 0.35 µM | Kd (HLA-A*68:02; [21]): ≥ 20 µM | Kd (HLA-A*23:01; [21]): ≥ 20 µM | Kd (HLA-A*02:19; [21]): ≥ 20 µM | Kd (HLA-A*02:16; [21]): ≥ 20 µM | Kd (HLA-A*02:12; [21]): ≥ 20 µM | Kd (HLA-A*29:02; [21]): ≥ 20 µM | Kd (HLA-A*02:11; [21]): ≥ 20 µM | Kd (HLA-A*03:01; [21]): ≥ 20 µM | Kd (HLA-A*24:03; [21]): ≥ 20 µM | Kd (HLA-B*27:03; [22]): ≥ 20 µM | Kd (HLA-B*39:01 [8]; [22]): ≥ 20 µM | Kd (HLA-B*18:01 [9]; [22]): ≥ 20 µM | Kd (HLA-A*02:01 [10]; [22]): ≥ 20 µM | Kd (HLA-B*46:01; [22]): ≥ 20 µM | Kd (HLA-A*26:01 [13]; [22]): ≥ 20 µM | Kd (HLA-B*15:17; [22]): ≥ 20 µM | Kd (HLA-A*69:01 [11]; [22]): ≥ 20 µM | Kd (HLA-B*57:01 [12]; [22]): ≥ 20 µM | Kd (HLA-B*51:01; [22]): ≥ 20 µM

SLMSRVVYK
Kd (HLA-A*02:03; [23]): ≥ 20 µM | Kd (HLA-A*68:02; [23]): ≥ 20 µM | Kd (HLA-A*23:01; [23]): ≥ 20 µM | Kd (HLA-A*02:19; [23]): ≥ 20 µM | Kd (HLA-A*02:16; [23]): ≥ 20 µM | Kd (HLA-A*02:12; [23]): ≥ 20 µM | Kd (HLA-A*29:02; [23]): ≥ 20 µM | Kd (HLA-A*03:01; source organism: Orthohantavirus prospectense): 0.0772 µM | Kd (HLA-A*24:03; [23]): ≥ 20 µM | Kd (HLA-B*27:03; [23]): ≥ 20 µM | Kd (HLA-B*39:01 [8]; [23]): ≥ 20 µM | Kd (HLA-B*18:01 [9]; [23]): ≥ 20 µM | Kd (HLA-A*31:01; [23]): 3.1 nM | Kd (HLA-B*46:01; [23]): ≥ 20 µM | Kd (HLA-B*15:01 [14]; [23]): ≥ 20 µM | Kd (HLA-A*26:01 [13]; [23]): ≥ 20 µM | Kd (HLA-B*15:17; [23]): ≥ 20 µM | Kd (HLA-A*69:01 [11]; [23]): ≥ 20 µM | Kd (HLA-B*57:01 [12]; [23]): ≥ 20 µM | Kd (HLA-B*51:01; [23]): ≥ 20 µM

— the Immune Epitope Database (IEDB)
